Experimental data: patent US20240173425A1, “HUMAN CD33 ANTIBODIES AND GLUCOCORTICOID CONJUGATES” (Eli Lilly and Company, priority 2022, published 2024)

Tested on: primary human monocyte cells
Assay: Antibody internalization (pHrodo Red, flow cytometry)
Format: cell-based
Conditions: pHrodo-labeled antibodies 10 μg/mL, 2 hours at 37° C.
Description: Exemplified anti-human CD33 antibodies were labeled with pHrodo™ Red, amine-reactive dye (Thermo Fisher, P36014). The pH-sensitive dye was a non-fluorescent when outside the cells but fluoresces brightly in acidic low-pH lysosomes. This property allows visualization and qualification of the internalization of an antibody by flow cytometry. Human PBMCs (500 K/well) were incubated on ice in FACS buffer for 30 min, to quiesce baseline internalization. Cells were stained with pHrodo-labeled antibodies (10 μg/mL) in FACS buffer for 1 hour on ice then transferred to 37° C. for 2 hours. Cells were then stained with the remaining panel of surface detection marker: CD45 mAb (clone HI30); CD11b (clone ICRF44); CD14 (clone M5E2).

B1: Gemtuzumab: Gemtuzumab (hIgG4PAA), comparator anti-CD33 antibody in the internalization assay (antibody, chains of the INN, looked up, V domains shown)
VH: EVQLVQSGAEVKKPGSSVKVSCKASGYTITDSNIHWVRQAPGQSLEWIGYIYPYNGGTDYNQKFKNRATLTVDNPTNTAYMELSSLRSEDTAFYYCVNGNPWLAYWGQGTLVTVSS
VL: DIQLTQSPSTLSASVGDRVTITCRASESLDNYGIRFLTWFQQKPGKAPKLLMYAASNQGSGVPSRFSGSGSGTEFTLTISSLQPDDFATYYCQQTKEVPWSFGQGTKVEVK
modifications: hIgG4PAA
notes: Gemtuzumab (hIgG4PAA), comparator anti-CD33 antibody in the internalization assay
% Internalization: 50.55 ± 2.899% | % Internalization (listed as Gemtuzumab (hIgG4PAA)): about 50%
